Measurements published in patent US20260274985A1 (MYTHIC THERAPEUTICS, published 2026).
Where a chain is given by its changes, count along the chain named. One block for each binder: values may come before it.

Columns and labels:
[1] = molecular target: T1, TROP2 on TROP2-positive NCI-H1975 cells (human, UniProt P09758 27-323); experiment: cell-based or functional assay
T1 sequence: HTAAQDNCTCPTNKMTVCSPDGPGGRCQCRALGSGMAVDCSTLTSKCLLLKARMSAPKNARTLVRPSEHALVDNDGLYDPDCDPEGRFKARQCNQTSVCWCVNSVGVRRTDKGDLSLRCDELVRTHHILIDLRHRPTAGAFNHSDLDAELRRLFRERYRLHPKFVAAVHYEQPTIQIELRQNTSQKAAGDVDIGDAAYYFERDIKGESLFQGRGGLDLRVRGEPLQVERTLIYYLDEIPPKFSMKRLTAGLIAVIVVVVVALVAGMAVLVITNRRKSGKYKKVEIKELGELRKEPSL

[2] = molecular target: T1, TROP2 on TROP2-positive NCI-H1975 cells; experiment: binding to NCI-H1975 cells at pH 6.4, maximal MFI
[3] = molecular target: T2, Human TROP2 Protein, His Tag (Acro Biosystems) (human, UniProt P09758 27-274); experiment: BLI (Octet) [1/2]
T2 construct: also called TACSTD2; not shown: His tag
T2 sequence (looked up): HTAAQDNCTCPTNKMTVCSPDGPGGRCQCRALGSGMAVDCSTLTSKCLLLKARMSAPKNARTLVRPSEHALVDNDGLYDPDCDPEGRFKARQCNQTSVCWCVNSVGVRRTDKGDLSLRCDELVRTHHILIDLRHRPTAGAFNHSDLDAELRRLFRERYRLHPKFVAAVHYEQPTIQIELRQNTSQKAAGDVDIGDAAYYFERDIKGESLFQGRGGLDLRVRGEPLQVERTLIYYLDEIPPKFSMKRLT

[4] = molecular target: T3, Human TROP2 Protein, His Tag (Acro Biosystems) (human, UniProt P09758 27-274); experiment: BLI (Octet)
T3 construct: not shown: His tag
T3 sequence (looked up): T2 sequence (looked up)

[5] = molecular target: T1, TROP2 on TROP2-positive NCI-H1975 cells; experiment: cell-based or functional assay; remark: listed apart in the source
[6] = molecular target: T4, TROP2 on TROP2-positive NCI-H1975 cells (human, UniProt P09758 27-323); experiment: binding to TROP2-positive NCI-H1975 cells at pH 6.7
T4 construct: whole, on cells
T4 sequence (looked up): T1 sequence

[7] = molecular target: T4, TROP2 on TROP2-positive NCI-H1975 cells; experiment: binding to TROP2-positive NCI-H1975 cells at pH 7.4
[8] = molecular target: T3, Human TROP2 Protein, His Tag (Acro …); experiment: Octet (BLI); antigen and pH not given

B1: MYT11614 (antibody, human IgG1, V domains shown)
VH: QVQLQQSGSELKKPGASVKVSCKASGYTFTNYGMNWVKQAPGQGLKWMGWINTYTGEPTYTDDFKGRFAFSLDTSVSTAYLQISSLKADDTAVYFCARGGFGSSYWYFDVWGQGSLVTVSS
VL: DIQLTQSPSSLSASVGDRVSITCKASQDVHIAVAWYQQKPGKAPKLLIYSASYRYTGVPDRFSGSGSGTDFTLTISSLQPEDFAVYYCQQHYITPLTFGAGTKVEIK
notes: Human IgG1 heavy chain constant domain and Kappa light chain constant domain; also called Sacituzumab LC variant
Cytotox Fold over datopotamab (FOD) [1]: 1.35 fold over datopotamab | Max MFI (@ pH 6.4)-H1975 [2]: 19400 MFI

B2: MYT13391 (antibody, V domains shown)
VH: B1 VH with G33H
VL: B1 VL with H30S, V33H, Y53H
notes: Sacituzumab HC-LC pairing variant
binding result [3]: binds

B3: MYT13384 (antibody, V domains shown)
VH: B1 VH with Y60H
VL: B1 VL with S52H
notes: as for B2
binding result [3]: binds

B4: MYT13258 (antibody, V domains shown)
VH: QVQLVQSGAEVKKPGASVKVSCKASGYTFTTAGMQWVRQAPGQGLEWMGWINTHSGVPKYAEDFKGRVTISADTSTSTAYLQLSSLKSEDTAVYYCARSGHGSSYWYFDVWGQGTLVTVSS
VL: B1 VL with L4M, S20T, V29H, H30S, I31T, D60S, A100Q, V104L
notes: Full-length IgG from Expi293 supernatant; also called datopotamab heavy chain and light chain pairing variant
binding result [4]: binds

B5: MYT13428 (antibody, human IgG1, V domains shown)
VH: B1 VH with K65H
VL: B1 VL with A51H, I93H
notes: also called sacituzumab HC-LC pairing variant
FOW H1975 (10 nM) [5]: 1.55 fold over parent antibody | Cytotox Fold over datopotamab (FOD) [1]: 1.18 fold over datopotamab | Max MFI (@ pH 6.4)-H1975 [2]: 6720 MFI

B8: MYT13396 (antibody, V domains shown)
VH: B1 VH with K65H
VL: B1 VL with H30S, V33H, Y53H
notes: as for B2
binding result [3]: binds

B9: MYT13394 (antibody, V domains shown)
VH: B1 VH with D63H
VL: B1 VL with H30S, V33H, Y53H
notes: as for B2
binding result [3]: binds

B11: MYT13390 (antibody, V domains shown)
VH: B1 VH with Y32H
VL: B1 VL with H30S, V33H, Y53H
notes: as for B2
binding result [3]: binds

B12: MYT13369 (antibody, human IgG1, V domains shown)
VH: B1 VH with D62H
VL: B1 VL with V33H
notes: as for B5
FOW H1975 (10 nM) [5]: 1.44 fold over parent antibody | Cytotox Fold over datopotamab (FOD) [1]: 1.33 fold over datopotamab | Max MFI (@ pH 6.4)-H1975 [2]: 17100 MFI

B14: MYT13428 (antibody, human IgG1, V domains shown)
VH: B1 VH with K65H
VL: B1 VL with A51H, I93H
notes: IgG; also called Sacituzumab HC-LC pairing variant
IC50 [6]: 8.29 nM | IC50 [7]: 1.56 nM | Kd [8]: 2.08 nM | Octet response at 33.33 nM (Y-Axis) nm [8]: 0.141 nm

B20: MYT13262 (antibody, V domains shown)
VH: B4 VH
VL: B1 VL with L4M, S20T, H30S, I31T, S52H, D60S, A100Q, V104L
notes: as for B4
binding result [4]: binds

B22: MYT13380 (antibody, V domains shown)
VH: B1 VH with K65H
VL: B1 VL with A51H
notes: as for B2
binding result [3]: binds

B27: MYT11704 (antibody, human IgG1, V domains shown)
VH: QVQLQESGPGLVKPSETLSLTCTVSGGSISSYGVHWIRQPPGKGLEWIGVIWTSGVTDYNSALMGRVTISVDTSKNQFSLKLSSVTAADTAVYYCARDGDYDRYTMDYWGQGTLVTVSS
VL: DIVMTQSPDSLAVSLGERATINCRASKSVSTSGYSYMHWYQQKPGQPPKLLIYLASNLESGVPDRFSGSGSGTDFTLTISSLQAEDVAVYYCQHSRELPYTFGQGTKLEIK
notes: Human IgG1 heavy chain constant domain and Kappa light chain constant domain; also called hu7E6SVG WT; hu7E6SVG
Cytotox Fold over datopotamab (FOD) [1]: 1.22 fold over datopotamab | Max MFI (@ pH 6.4)-H1975 [2]: 31500 MFI

B28: MYT12459 (antibody, human IgG1, V domains shown)
VH: B27 VH
VL: B27 VL with E59H, Q93H, E97H
notes: Human IgG1 heavy chain constant domain and Kappa light chain constant domain; also called hu7E6SVG pH variant
Cytotox Fold over datopotamab (FOD) [1]: 1.35 fold over datopotamab | Max MFI (@ pH 6.4)-H1975 [2]: 18700 MFI

B29: MYT13280 (antibody, V domains shown)
VH: B27 VH with M106H
VL: B27 VL with E59H
notes: Full-length IgG from Expi293 supernatant; also called hu7E6SVG heavy chain and light chain pairing variant
binding result [4]: binds

Continued, in another order:

binding result [3]: binds
B6: MYT13389 (antibody, V domains shown)
VH: B1 VH with G66H
VL: B1 VL with S52H
notes: as for B2

Max MFI (@ pH 6.4)-H1975 [2]: 20000 MFI
B7: MYT11670 (antibody, human IgG1, V domains shown)
VH: B4 VH with H101F, S104H
VL: B1 VL with L4M, S20T, H30S, I31T, D60S, A100Q, V104L
notes: Human IgG1 heavy chain constant domain and Kappa light chain constant domain; also called Datopotamab pH variant
Cytotox Fold over datopotamab (FOD) [1]: 1.41 fold over datopotamab

binding result [3]: binds
B10: MYT13397 (antibody, V domains shown)
VH: B1 VH with G66H
VL: B1 VL with H30S, V33H, Y53H
notes: as for B2

binding result [4]: binds
B13: MYT13261 (antibody, V domains shown)
VH: B4 VH with R98H, H101F
VL: B1 VL with L4M, S20T, H30S, I31T, S52H, D60S, A100Q, V104L
notes: as for B4

binding result [3]: binds
B15: MYT13393 (antibody, V domains shown)
VH: B1 VH with D62H
VL: B1 VL with H30S, V33H, Y53H
notes: as for B2

binding result [4]: binds
B16: MYT13259 (antibody, V domains shown)
VH: B4 VH with H101F, S104H
VL: B1 VL with L4M, S20T, V29H, H30S, I31T, D60S, A100Q, V104L
notes: as for B4

FOW H1975 (10 nM) [5]: 1.43 fold over parent antibody | Max MFI (@ pH 6.4)-H1975 [2]: 13400 MFI
B17: MYT13370 (antibody, human IgG1, V domains shown)
VH: B1 VH with D63H
VL: B1 VL with V33H
notes: also called sacituzumab HC-LC pairing variant; Sacituzumab pH variant
Cytotox Fold over datopotamab (FOD) [1]: 1.28 fold over datopotamab

binding result [4]: binds
B18: MYT13269 (antibody, V domains shown)
VH: B4 VH with R98H, H101F
VL: B1 VL with L4M, S20T, H30S, I31T, D60S, Q90H, A100Q, V104L
notes: as for B4

IC50 [6]: 2.66 nM | IC50 [7]: 0.81 nM | Kd [8]: 3.9 nM | Octet response at 33.33 nM (Y-Axis) nm [8]: 0.135 nm
B19: MYT13425 (antibody, human IgG1, V domains shown)
VH: B1 VH with D62H
VL: B1 VL with A51H, I93H
notes: as for B14

binding result [4]: binds
B21: MYT13270 (antibody, V domains shown)
VH: B4 VH
VL: B1 VL with L4M, S20T, H30S, I31T, D60S, Q90H, A100Q, V104L
notes: as for B4

FOW H1975 (10 nM) [5]: 1.56 fold over parent antibody | Max MFI (@ pH 6.4)-H1975 [2]: 6110 MFI
B23: MYT13427 (antibody, human IgG1, V domains shown)
VH: B1 VH with F64H
VL: B1 VL with A51H, I93H
notes: as for B17
Cytotox Fold over datopotamab (FOD) [1]: 1.19 fold over datopotamab

binding result [3]: binds
B24: MYT13381 (antibody, V domains shown)
VH: B1 VH with G66H
VL: B1 VL with A51H
notes: as for B2

IC50 [6]: 4.39 nM | IC50 [7]: 1 nM | Kd [8]: 2.12 nM | Octet response at 33.33 nM (Y-Axis) nm [8]: 0.134 nm
B25: MYT13427 (antibody, human IgG1, V domains shown)
VH: B1 VH with F64H
VL: B1 VL with A51H, I93H
notes: as for B14

binding result [4]: binds
B26: MYT13271 (antibody, V domains shown)
VH: B4 VH with H101F, S104H
VL: B1 VL with L4M, S20T, H30S, I31T, D60S, Q90H, A100Q, V104L
notes: as for B4
